# Results from publication PMC8456996.
# Read-outs that look alike come from different tables or passages of the source.
# T1: Thioredoxin (hsTXN) (Homo sapiens, UniProt P10599 1-105)
# T1 sequence: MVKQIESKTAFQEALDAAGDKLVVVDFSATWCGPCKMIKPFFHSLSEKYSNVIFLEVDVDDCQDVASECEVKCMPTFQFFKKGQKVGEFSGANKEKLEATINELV
# T2: End binding protein 1 (dmEB1) (Drosophila melanogaster, UniProt Q0E9N1 1-291)
# T2 sequence: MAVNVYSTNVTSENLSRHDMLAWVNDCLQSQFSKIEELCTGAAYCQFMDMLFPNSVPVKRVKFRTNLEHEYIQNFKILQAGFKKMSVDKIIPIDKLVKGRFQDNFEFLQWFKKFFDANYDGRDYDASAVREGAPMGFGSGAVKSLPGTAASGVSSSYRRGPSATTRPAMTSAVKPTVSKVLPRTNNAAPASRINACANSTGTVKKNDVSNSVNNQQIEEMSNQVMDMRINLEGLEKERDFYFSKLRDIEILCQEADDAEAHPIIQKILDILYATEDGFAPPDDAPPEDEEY
# T3: Syntrophin-beta-1 PDZ domain (Homo sapiens, UniProt Q13884 111-196)
# T3 sequence: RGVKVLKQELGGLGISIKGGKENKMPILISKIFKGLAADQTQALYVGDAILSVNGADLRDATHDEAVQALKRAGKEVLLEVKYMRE
# How the values were obtained:
# TRIM25 PRY/SPRY domain = TRIM25 PRY/SPRY domain (UniProt Q14258 439-630); assay: NMR HSQC titration
# TRIM25 PRY/SPRY domain, sequence (Q14258 439-630): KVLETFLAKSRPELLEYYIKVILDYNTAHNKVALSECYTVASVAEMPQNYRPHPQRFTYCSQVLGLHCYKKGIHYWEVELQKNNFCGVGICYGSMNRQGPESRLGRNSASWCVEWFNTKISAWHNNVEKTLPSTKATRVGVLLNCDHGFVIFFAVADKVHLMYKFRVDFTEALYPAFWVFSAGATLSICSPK
# Thioredoxin (hsTXN) [1] = molecular target: T1, Thioredoxin (hsTXN); assay: NMR HSQC titration
# [2] = molecular target: T2, End binding protein 1 (dmEB1); assay: EMSA
# Thioredoxin (hsTXN) [3] = molecular target: T1, Thioredoxin (hsTXN); assay: NMR HSQC titration; remark: listed apart in the source
# [4] = molecular target: T3, Syntrophin-beta-1 PDZ domain; assay: NMR HSQC titration
# [5] = molecular target: T3, Syntrophin-beta-1 PDZ domain; assay: NMR HSQC titration; remark: listed apart in the source
# [6] = molecular target: FPR1 (FK506-binding protein 1) (Saccharomyces cerevisiae, UniProt P20081 1-114); assay: NMR HSQC titration
# FPR1 (FK506-binding protein 1), sequence (P20081 whole entry): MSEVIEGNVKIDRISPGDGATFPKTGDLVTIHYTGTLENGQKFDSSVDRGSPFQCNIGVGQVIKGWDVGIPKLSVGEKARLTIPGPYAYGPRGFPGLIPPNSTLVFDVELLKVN
binder,measurement,setting,value
UUUUUUUUUUUUUUU (ssRNA) [poly(U) 15-mer],binding result,TRIM25 PRY/SPRY domain,binds
AAAAAAAA (ssRNA) [poly(A) 8-mer],binding result,Thioredoxin (hsTXN) [1],no binding
"UUUUUUUUUUUUUUUUUUUUUUUUU (ssRNA) [poly(U) 25-mer, 32P probe]",binding result,[2],binds
UUUUUUUU (ssRNA) [poly(U) 8-mer],binding result,Thioredoxin (hsTXN) [3],no binding
same,binding result,[4],no binding
CCCCCCCC (ssRNA) [poly(C) 8-mer],binding result,Thioredoxin (hsTXN) [1],no binding
same,binding result,[5],no binding
UUUUUUUUU (ssRNA) [poly(U) 9-mer],binding result,[6],no binding
